# Target: T1, HA-tagged VDR (vitamin D receptor), wild type (UniProt P11473)
# T1 sequence: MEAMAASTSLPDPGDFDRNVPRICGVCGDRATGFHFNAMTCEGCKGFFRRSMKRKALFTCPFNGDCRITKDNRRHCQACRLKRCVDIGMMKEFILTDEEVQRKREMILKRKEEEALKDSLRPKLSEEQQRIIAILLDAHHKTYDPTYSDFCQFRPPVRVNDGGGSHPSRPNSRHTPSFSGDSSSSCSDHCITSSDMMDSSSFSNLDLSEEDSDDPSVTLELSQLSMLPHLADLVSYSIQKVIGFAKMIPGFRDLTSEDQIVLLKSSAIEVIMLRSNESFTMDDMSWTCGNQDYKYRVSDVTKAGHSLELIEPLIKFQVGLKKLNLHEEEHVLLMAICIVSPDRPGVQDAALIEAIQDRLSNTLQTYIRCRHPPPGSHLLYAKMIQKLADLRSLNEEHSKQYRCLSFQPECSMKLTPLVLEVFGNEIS
substance,measurement,value
enzymatically dead PCAF (D608A),VDR acetylation,but not with the enzymatically dead PCAF D608A mutant
